These results are taken from patent US20210292393A1.

Several values for one entry are separate records, joined by “and”; a condition that tells them apart may be missing. Identical values can stand only once.

Settings in all cases: remark: other sources report otherwise
Test [1] deals with SARS-CoV-2 spike (S) protein (SARS-CoV-2), P0DTC2.
In test [2] the target is SARS-CoV-2 spike (S) protein, full length, wild type, expressed on the surface of CHO cells (SARS-CoV-2), P0DTC2.
In test [3] the target is SARS-CoV-2 full length spike protein (wild-type), conjugated to optically encoded beads (SARS-CoV-2), P0DTC2.
The target of test [4] is SARS-CoV-2 full length spike protein, wild type, expressed on the surface of CHO cells (SARS-CoV-2), P0DTC2.
Test [5] has as its target SARS-CoV-2 full length spike protein (wild type) (SARS-CoV-2), P0DTC2.
The target of test [6] is SARS-CoV-2 spike protein (SARS-CoV-2), P0DTC2.
Test [7] deals with SARS-CoV-2 full length spike protein (wild-type) (SARS-CoV-2), P0DTC2.

B1: antibody 325 (antibody, V domains shown)
VH: QVQLQESGPGLVKPSQTLSLTCTVSGGSISGGGYYWSWIRQHPGKGLEWIGYIYYSGSTYYNPSLQSRVTISVDTSKNQFSLKLSSVTAADTAVYYCARVGTSSVWYFDYWGQGTLVTVSS
VL: QSALTQPRSVSGSPGQSVTISCTGTSSDVGGYNYVSWYQQHPGKAPKLMIYDVTKRPSGVPDRFSGSKSGNTASLTISGLQAEDEADYYCSSYAGSWVFGGGTKLTVL
In test [1], B1 displayed a Kd of 0.00736 µM, a koff of 0.000154 s⁻¹ and a kon of 20900 M⁻¹ s⁻¹. In addition, in test [2], the median fluorescence fold over isotype (fold over isotype) was 1.14 and 1.08.

B2: antibody 538 (antibody, V domains shown)
VH: QLQLQESGPGLVKPSETLSLTCTVSGGSISSSSYYWGWIRQPPGKGLEWIGSINYSGSTYYNPSLKSRVTISVDTSKNQFSLKLSSVTAADTAVYYCARYHDYGDDYWGQGTLVTVSS
VL: QLVLTQSPSASASLGASVKLTCTLSSGHSRYAIAWHQQQPEKGPRYLMKLNSDGSHSKGDGIPDRFSGSSSGAERYLTISSLQSEDEADYYCQTWGTGIQVFGGGTKLTVL
As to B2, the median fluorescence fold over isotype (fold over isotype) in test [3] was 607. In test [4], the median fluorescence fold over isotype control (fold over isotype) turned out to be 1.96.

B3: antibody 551 (antibody, V domains shown)
VH: EVQLVESGGGLVQPGGSLRLSCAASGFTFSSYWMSWVRQAPGKGLEWVANINQDGSDKYYVDSVKGRFTISRDNAKNSLYLQMNSLRAEDTAVYYCARAPGWAAAPTFDYWGQGTLVTVSS
VL: QSALTQPRSVSGSPGQSVTISCTGTSSDVGGYNYVSWYQQHPGKAPKFMIYDVSKRPSGVPDRFSGSKSGNTASLTISGLQAEDEADYYCCSYAGSYTLVVFGGGTKLTVL
Turning to B3, in test [3], the median fluorescence fold over isotype (fold over isotype) was 649.

B4: antibody 544 (antibody, V domains shown)
VH: QVQLQQWGAGLLKPSETLSLTCAVYGGSFSGYYWSWIRQPPGKGLEWIGEINHSGSTNYNPSLKSRVTISVDTSKNQFSLKLSSVTAADTAVYYCARGFKWFGELLFGAQGTLVTVSS
VL: not shown
In the case of B4, the median fluorescence fold over isotype (fold over isotype) in test [3] was determined as 639. The molecule also returned a median fluorescence fold over isotype control (fold over isotype) in test [4] of 2.48.

B5: antibody 322 (antibody, V domains shown)
VH: EVQLVESGGGLVQPGGSLRLSCAASGFTFSSYWMSWVRQAPGKGLEWVANIKQDGSEKYYVDSVKGRFTISRDNAKNSLYLQMNSLRAEDTAVYYCARDEDVAAALDYWGQGTLVTVSS
VL: SYVLTQPPSVSVAPGKTARITCGGNNIGSKSVHWYQQKPGQAPVLVIYYDSDRPSGIPERFSGSNSGNTATLTISRVEAGDEADYYCQVWDSSSDHPERVFGGGTKLTVL
On to B5, for which, in test [1], the Kd is 0.0211 µM, the koff was found to be 0.000401 s⁻¹ and the kon amounted to 19000 M⁻¹ s⁻¹. Further, the median fluorescence fold over isotype (fold over isotype) in test [2] is 4.94 and 1.65.

B6: antibody 270 (antibody, V domains shown)
VH: QVQLVQSGAEVKRPGTSVKVSCKTSGYTFTDHFIHWVRQAPGRRLEWMGWINPNSGGTNYAQNFQGRVTMTRDTSITTAYMDLTRLTSDDTAIYYCAREAAYGSGNLNWFDPWGQGTRVTVSS
VL: NFMLTQPHSVSESPGKTVTISCTGSSGSIAANYVHWYQQRPGSAPRTVIYEDNQRPSGVPDRFSGSIDSSSNSASLTISGLKTEDEADYYCQSYDGDSWVFGGGTKLTVL
The molecule B6 displayed a binding signal, bead assay (fold over isotype) in test [5] of 305.

B7: antibody 304 (antibody, V domains shown)
VH: EVQLLESGGGLVQPGGSLRLSCAASGFTFSTYAMSWVRQAPGKGLEWVSAISGSGGSTYYADSVKGRFTISRDNSKNTLYLQMNSLRAEDTAVYYCASGYSPDYWGQGTLVTVSS
VL: AIQMTQSPSSLSASVGDRVTITCRASQGIRNDLGWYQQKPGKAPKLLIYAASSLQSGVPSRFSGSGSGTDFTLTISSLQPEDFATYYCLQDYNYPRTFGQGTKVEIK
In the case of B7, in test [1], the Kd came out at 0.00314 µM, the koff amounted to 0.000274 s⁻¹ and the kon stood at 87300 M⁻¹ s⁻¹. For the same molecule, the binding signal, bead assay (fold over isotype) in test [5] is 1.22 and 1.17 and 1.09.

B8: antibody 362 (antibody, V domains shown)
VH: QVQLVESGGGVVQPGRSLRLSCAASGFNLSNYAMHWVRQASGKGLEWVSLISYDGSVKYYTDSVKGRFTVSGDNSKNTLFLQMNSLRPDDSALYYCVRGGVSGPNSFDMWGQGTTVTVSS
VL: DVVMTQSPLSLPVTLGQPATISCRSSQSLVYSDGNTYVNWFQQRPGQSPRRLIYQVSIRASGVPDRFSGSGSGTDFALKISRVEAEDVGVYYCMQGTHWPVTFGQGTKVEIK
For the molecule B8, in test [5], the median fluorescence intensity fold over isotype (fold over isotype control) came out at 503. In test [2], this molecule returned a median fluorescence fold over isotype (fold over isotype) of 9.45.

B9: antibody 444 (antibody, V domains shown)
VH: QVQLVESGGGLVKPGGSLRLSCAASGFTFSDYYMSWIRQAPGKGLEWVSYISSSGSTIYYADSVKGRFTISRDNAKNSLYLQMNSLRAEDTAVYYCARERKVVVAATRNYYYYYGMDVWGQGTTVTVSS
VL: SYELTQPPSVSVSPGQTARITCSGDALPKQYAYWYQQKPGQAPVLVIYKDSERPSGIPERFSGSSSGTTVTLTISGVQAEDEADYYCQSADSSTWVFGGGTKLTVL
B9: in test [6], the Kd is 0.0272 µM, the koff was found to be 0.000717 s⁻¹ and the kon worked out at 26400 M⁻¹ s⁻¹. Moreover, in test [7], the Binding to Wild-Type SARS-CoV-2 (Bead Assay) is 0.97 and 0.91 and 0.9.

B10: antibody 416 (antibody, V domains shown)
VH: EVQLVESGGGLVQPGRSLRLSCAASGFTFDDYAMHWVRQAPGKGLEWVSGISWNSGSIGYADSVKGRFTISRDNAKNSLYLQMNSLRAEDTALYYCAKDLAWLSGGMDVWGQGTTVTVSS
VL: not shown
With B10, the Binding to Wild-Type SARS-CoV-2 (Bead Assay) in test [7] amounted to 110.

B11: antibody 337 (antibody, V domains shown)
VH: QVQLVESGGGVVQPGRSLRLSCAASGFTFSSYGMHWVRQAPGKGLEWVAIIWYDGSNKYYADSVKGRFTISRDNSKNTLYLQMNSLRAEDTAVYYCAKDTGGYCSGGSCYPESYFDYWGQGTLVTVSS
VL: SYVLTQPPSVSVAPGKTARITCGGNNIGSKSVHWYQQKPGQAPVLVIYYDSDRPSGIPERFSGSNSGNTATLTINRVEAGDEADYYCQVWDGSSDHLYVFGTGTKVTVL
B11 yielded a median fluorescence intensity fold over isotype (fold over isotype control) in test [5] of 756. This molecule also came in with a median fluorescence fold over isotype (fold over isotype) in test [2] of 2.08.

B12: antibody 505 (antibody, V domains shown)
VH: EVQLVESGGGLVKPGGSLRLSCAASGFTFSSYSMNWVRQAPGKGLEWVSSISSSSSYIYYADSVKGRITISRDNAKNSLYLQMNSLRAEDTAVYYCAREYPNFRAEWLLSPYGMDVWGQGTTVTVSS
VL: QSALTQPASVSGSPGQSITISCTGTSSDVGSYNLVSWYQQHPGKAPKLMIYEVSKRPSGVSNRFSGSKSGNTASLTISGLQAEDEADYYCCSYAGSSTSVKVFGTGTKVTVL
With B12, in test [3], the median fluorescence fold over isotype (fold over isotype) is 658. For the same molecule, the median fluorescence fold over isotype control (fold over isotype) in test [4] is 1.55.

B13: antibody 507 (antibody, V domains shown)
VH: QVQLQESGPGLVKPSGTLSLTCAVSGGSISSSNWWSWVRQPPGKGLEWIGEIYHSGNTNYNPSLKSRVTISVDKSKNQFSLKLSSVTAADTAVYYCARREWLRLFDYWGQGTLVTVSS
VL: QSALTQPASVSGSPGQSITISCTGTSSDVGSYNLVSWYQQHPGKAPKLMIYEVSKRPSGVSNRFSGSKSGNTASLTISGLQAEDEADYYCCSYAGSSTYVFGTGTKVTVL
Consider B13, for which, in test [3], the median fluorescence fold over isotype (fold over isotype) came out at 571. The molecule also registered a median fluorescence fold over isotype control (fold over isotype) in test [4] of 1.51.
